The record followed here is US12460006B2, “Antibodies against integrin alpha 11 beta 1” (Momenta Pharmaceuticals, Inc., priority 2019, dated 2025).

First the molecules themselves.
T1: α11β1 expressed on the surface of CHO-K1 cells (Homo sapiens, UniProt Q9UKX5)
T1 construct: expressed in transfected cells; host or cells: CHO-K1
T1 sequence (Q9UKX5 23-1188): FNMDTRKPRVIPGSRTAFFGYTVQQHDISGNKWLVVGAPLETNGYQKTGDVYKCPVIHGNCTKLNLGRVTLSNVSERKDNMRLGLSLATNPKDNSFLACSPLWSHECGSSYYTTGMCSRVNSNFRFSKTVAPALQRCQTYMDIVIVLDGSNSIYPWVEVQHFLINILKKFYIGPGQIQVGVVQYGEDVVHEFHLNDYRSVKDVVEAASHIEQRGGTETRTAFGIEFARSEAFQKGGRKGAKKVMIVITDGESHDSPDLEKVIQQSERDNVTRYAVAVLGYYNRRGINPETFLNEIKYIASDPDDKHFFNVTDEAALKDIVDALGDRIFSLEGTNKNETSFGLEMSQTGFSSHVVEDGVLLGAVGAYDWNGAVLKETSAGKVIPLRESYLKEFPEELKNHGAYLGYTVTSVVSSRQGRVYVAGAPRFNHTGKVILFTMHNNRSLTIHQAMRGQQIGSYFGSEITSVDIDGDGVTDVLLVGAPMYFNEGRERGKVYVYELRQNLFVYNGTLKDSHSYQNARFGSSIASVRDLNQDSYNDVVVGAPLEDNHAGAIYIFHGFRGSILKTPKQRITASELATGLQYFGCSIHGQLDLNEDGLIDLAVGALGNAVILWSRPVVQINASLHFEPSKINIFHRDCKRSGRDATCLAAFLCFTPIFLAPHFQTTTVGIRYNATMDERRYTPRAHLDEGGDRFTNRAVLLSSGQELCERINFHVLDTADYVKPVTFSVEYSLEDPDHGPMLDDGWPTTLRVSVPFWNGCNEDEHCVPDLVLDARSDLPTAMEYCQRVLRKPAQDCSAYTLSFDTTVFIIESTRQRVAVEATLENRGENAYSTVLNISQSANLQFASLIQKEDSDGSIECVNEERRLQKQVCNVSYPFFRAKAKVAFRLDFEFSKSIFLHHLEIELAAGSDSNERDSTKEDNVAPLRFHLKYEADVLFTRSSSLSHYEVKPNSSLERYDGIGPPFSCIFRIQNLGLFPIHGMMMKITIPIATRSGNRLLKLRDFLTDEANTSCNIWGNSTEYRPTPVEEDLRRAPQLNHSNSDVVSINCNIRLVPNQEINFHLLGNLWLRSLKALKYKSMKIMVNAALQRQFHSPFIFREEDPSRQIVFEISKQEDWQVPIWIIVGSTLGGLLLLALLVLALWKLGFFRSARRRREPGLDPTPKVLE

B1: 7D8B10: rat anti-α11β1 mAb; VH SEQ ID NO: 153, VL SEQ ID NO: 154 (antibody, V domains shown)
VH: MDLRLTYVFIVAILKGVLCEVKLEESGGGLVQPGMSVKLSCATSGFIFSDYWMEWVRQAPGKGLEWVAEIRNKANNYATYYGKSMKGRFTISRDDSKSIVYLQVNSIRSEDTAIYYCAPNFDYWGQGVMVTVSS
VL: MSPVQSLFLLLLWILGTHGDVVLTQTPPTLSATIGQSVSISCRSSQSLLHSTGNTYLNWLLQRPGQPPQLLIYLVSRLESGVPNRFSASGSGTDFTLKISGIEAEDLGVYYCVQSSHTPYTFGTGTKLELK
B2: 6C7: rabbit anti-α11β1 mAb; heavy chain SEQ ID NO: 185, light chain SEQ ID NO: 186 (antibody)
heavy: METGLRWLLLVAVLKGVQCQQQLEESGGGLVKPGGTLTLTCKASGIDFSSYYYMCWVRQAPGKGLELIVCIYTSSGGTWYASWVNGRLTISRSTSLNTVDLKMTSLTAADTATYFCARGVYSGSSDYPTRLDLWGQGTLVTVSLGQPKAPSVFPLAPCCGDTPSSTVTLGCLVKGYLPEPVTVTWNSGTLTNGVRTFPSVRQSSGLYSLSSVVSVTSSSQPVTCNVAHPATNTKVDKTVAPSTCSKPMCPPPELPGGPSVFIFPPKPKDTLMISRTPEVTCVVVDVSQDDPEVQFTWYINNEQVRTARPPLREQQFNSTIRVVSTLPIAHQDWLRGKEFKCKVHNKALPAPIEKTISKARGQPLEPKVYTMGPPREELSSRSVSLTCMINGFYPSDISVEWEKNGKAEDNYKTTPTVLDSDGSYFLYSKLSVPTSEWQRGDVFTCSVMHEALHNHYTQKSISRSPGK
light: MDTSTSTALLGLLLLWLTGARCAIEMTQSPPSLSASVGETVRIRCLASEDIYSGISWYQQKPEKPPTLLISGASNLESGVPPRFSGGGSGTDYTLTIGGVQAEDVATYYCLGGYSFSSTGLTFGAGTKVEIKRDPVAPSVLLFPPSKEELTTGTATIVCVANKYFPDVTVTWEVDGTTQTTGIENSKTPQNSADCTYNLSSTLTLTSTQYNSHKEYTCKVTQGTTSVVQSFNRGDC
B3: 6G4: rabbit anti-α11β1 mAb; heavy chain SEQ ID NO: 181, light chain SEQ ID NO: 182 (antibody)
heavy: METGLRWLLLVAVLKGVQCQQQLEESGGGLVKPGGTLTLTCKASGVALNPYYYMCWVRQAPGKGLEWIACVDADSSGSTYYASWAKGRFTISKTSSTTVTLKMTSLTAADTATYFCARESVDYSSVGIGYVHGTDGLWGPGTLVTVSSGQPKAPSVFPLAPCCGDTPSSTVTLGCLVKGYLPEPVTVTWNSGTLTNGVRTFPSVRQSSGLYSLSSVVSVTSSSQPVTCNVAHPATNTKVDKTVAPSTCSKPMCPPPELPGGPSVFIFPPKPKDTLMISRTPEVTCVVVDVSQDDPEVQFTWYINNEQVRTARPPLREQQFNSTIRVVSTLPIAHQDWLRGKEFKCKVHNKALPAPIEKTISKARGQPLEPKVYTMGPPREELSSRSVSLTCMINGFYPSDISVEWEKNGKAEDNYKTTPTVLDSDGSYFLYSKLSVPTSEWQRGDVFTCSVMHEALHNHYTQKSISRSPGK
light: MDTRAPTQLLGLLLLWLPGARCADIVVTQTPSSVSAAVGGTVTIKCQASQSISNYFSWYQQKPGQPPKLLIYRASTLASGVPSRFKGSGSGTEFTLTISDLECADAATYYCQCTYGRSNSNFFYGFGGGTEVVVKGDPVAPTVLIFPPAADQVATGTVTIVCVANKYFPDVTVTWEVDGTTQTTGIENSKTPQNSADCTYNLSSTLTLTSTQYNSHKEYTCKVTQGTTSVVQSFNRGDC
B4: 6F9: rabbit anti-α11β1 mAb; heavy chain SEQ ID NO: 183, light chain SEQ ID NO: 184 (antibody)
heavy: METGLRWLLLVAVLKGVQCQSLEESGGDLVKPGASLTLTCTASGSSFSSTYWNCWVRQAPGKGLEWIACINAGSGTTYYASWAKGRFTVSKTSSTTVTLQMTSLTAADTATYFCTRDSDGRFSSGYYFNLWGPGTLVTVSSGQPKAPSVFPLAPCCGDTPSSTVTLGCLVKGYLPEPVTVTWNSGTLTNGVRTFPSVRQSSGLYSLSSVVSVTSSSQPVTCNVAHPATNTKVDKTVAPSTCSKPMCPPPELPGGPSVFIFPPKPKDTLMISRTPEVTCVVVDVSQDDPEVQFTWYINNEQVRTARPPLREQQFNSTIRVVSTLPIAHQDWLRGKEFKCKVHNKALPAPIEKTISKARGQPLEPKVYTMGPPREELSSRSVSLTCMINGFYPSDISVEWEKNGKAEDNYKTTPTVLDSDGSYFLYSKLSVPTSEWQRGDVFTCSVMHEALHNHYTQKSISRSPGK
light: MDTRAPTQLLGLLLLWLPGATFAQVLTQTASPVSAAVGGTVTINCQSSQSVYDNNWLAWYQQKPGQPPKLLIDDASKLTSGVSSRFKGSGSGTQFTLTISGVQCDDAATYYCQGAYYSSGWYWAFGGGTEVVVKGDPVAPTVLIFPPAADQVATGTVTIVCVANKYFPDVTVTWEVDGTTQTTGIENSKTPQNSADCTYNLSSTLTLTSTQYNSHKEYTCKVTQGTTSVVQSFNRGDC
B5: 4E1: rabbit anti-α11β1 mAb; heavy chain SEQ ID NO: 195, light chain SEQ ID NO: 196 (antibody)
heavy: METGLRWLLLVAVLKGVQCQSLEESGGDLVKPGTSLTLSCTASGFSFGSYYYMCWVRQAPGKGLEWIACIDVGSSGDTYYASWVNGRFTISKTSSTTVTLQMTSLTAADTATYFCARDDTAAGGFGNLELWGPGTLVTVSSGQPKAPSVFPLAPCCGDTPSSTVTLGCLVKGYLPEPVTVTWNSGTLTNGVRTFPSVRQSSGLYSLSSVVSVTSSSQPVTCNVAHPATNTKVDKTVAPSTCSKPMCPPPELPGGPSVFIFPPKPKDTLMISRTPEVTCVVVDVSQDDPEVQFTWYINNEQVRTARPPLREQQFNSTIRVVSTLPIAHQDWLRGKEFKCKVHNKALPAPIEKTISKARGQPLEPKVYTMGPPREELSSRSVSLTCMINGFYPSDISVEWEKNGKAEDNYKTTPTVLDSDGSYFLYSKLSVPTSEWQRGDVFTCSVMHEALHNHYTQKSISRSPGK
light: MDTRAPTQLLGLLLLWLPGARCAFELTQTPSSVSEPVGGTVTIKCQASQSIYSYFSWYQQKPGQPPKRLIYQASTLASGVPSRFKGSGSGTDFTLTISDLECADAATYYCQNNYGRGSGSYFFGFGGGTEVVVKGDPVAPTVLIFPPAADQVATGTVTIVCVANKYFPDVTVTWEVDGTTQTTGIENSKTPQNSADCTYNLSSTLTLTSTQYNSHKEYTCKVTQGTTSVVQSFNRGDC
B6: 18E10F10: rat anti-α11β1 mAb; VH SEQ ID NO: 155, VL SEQ ID NO: 156 (antibody, V domains shown)
VH: MDIRLSLVFLVLFMKGVQCEVQLVESGGGLVQPGRSLKLSCAASRFTFSDYNMAWVRQAPKKGLEWVATIYHDDSGSYYRDSVKGRFTISRNNAKSTLYLQMDSLRSEDMATYYCARHNNGFDYWGQGVMVTVAS
VL: MKWPVRLLVLFFWIPASGGDVVMTQTPVSLPVRLGGQASISCRSSQSLVHSNGNTYLHWYLQKPGQSPQLLINRVSNRFSGVPDRFSGSGSGTDFTLKINRVEPEDLGDYYCLQSTHFPLTFGSGTKLETK

Sequence of human α11β1 (P05556 21-728 partner limits assumed, one chain of several): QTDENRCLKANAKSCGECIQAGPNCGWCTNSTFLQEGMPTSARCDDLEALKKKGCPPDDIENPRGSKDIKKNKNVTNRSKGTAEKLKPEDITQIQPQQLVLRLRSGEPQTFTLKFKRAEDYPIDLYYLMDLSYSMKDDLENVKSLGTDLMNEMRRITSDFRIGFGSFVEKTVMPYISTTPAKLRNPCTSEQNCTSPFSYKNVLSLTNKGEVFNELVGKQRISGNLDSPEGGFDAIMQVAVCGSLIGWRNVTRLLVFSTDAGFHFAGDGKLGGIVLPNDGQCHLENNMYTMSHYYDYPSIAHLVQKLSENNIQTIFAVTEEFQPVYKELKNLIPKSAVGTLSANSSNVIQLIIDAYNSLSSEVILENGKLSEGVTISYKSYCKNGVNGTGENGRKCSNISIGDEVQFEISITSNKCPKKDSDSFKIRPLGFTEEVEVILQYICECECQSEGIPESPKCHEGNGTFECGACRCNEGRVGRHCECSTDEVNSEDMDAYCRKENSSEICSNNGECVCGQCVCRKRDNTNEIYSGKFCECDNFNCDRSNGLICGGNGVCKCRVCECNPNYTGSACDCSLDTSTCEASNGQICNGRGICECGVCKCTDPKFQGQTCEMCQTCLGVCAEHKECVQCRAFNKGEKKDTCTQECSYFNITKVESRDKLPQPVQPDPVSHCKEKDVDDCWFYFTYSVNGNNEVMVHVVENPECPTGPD

The first assay concerns the target human α11β1 (Homo sapiens, UniProt Q9UKX5). The experiment in a line: ELISA binding to recombinant human α11β1. The conditions noted are these: binding Yes/No. In a few lines: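 Absorbance at 450 nm measured binding of serially diluted antibodies to immobilized α11β1 (human or mouse, coated at 0.25 μg/mL). Antibodies were incubated 1 h at room temperature, then detected with biotinylated anti-IgG, streptavidin-HRP and TMB substrate.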
Background: An ELISA detects its analyte on a solid surface through an enzyme-linked reagent.
As to B1, the “Human α11β1 ELISA” value is on record as “Yes”.
Still for that read-out and setting: then B2, with “Yes”; and B3, with “Yes”; and B4, with “Yes”.
Turning to B5, the “Human α11β1 ELISA” value was “Yes”.
Still for that read-out and setting: under B6 stands “Yes”.

The subject of the next assay is CHO-K1 cells expressing human α11. The experiment in a line: Cell adhesion inhibition (xCelligence), type I collagen. In kind it is cell-based. The conditions noted are these: Yes/No. In a few lines:
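CHO-K1 cells expressing human α11 (0.6×10^6 cells/mL) were preincubated with mAbs across a concentration range for 20 min at 37° C, then seeded on wells coated with 100 ng/mL type I collagen and blocked with 3% BSA. Impedance-based adhesion was recorded over 6 h, and maximum adhesion was compared with untreated control.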
Take B1: the “Inhibition of CHO-K1 adhesion to collagen” value (from here on “Inhibition”) is “No”.
For the molecule B2, the “Inhibition” value was “Yes”.
Still for that read-out and setting: under B3 stands “Yes”; under B4, “Yes”; under B5, “Yes”.
With B6, the “Inhibition” value is “Yes”.

Another assay has as its target T1, α11β1 expressed on the surface of CHO-K1 cells. The experiment in a line: FACS antibody binding to CHO-K1 cells expressing human α11. The note with it: binding Yes/No. In a few lines:
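Wild-type or human α11-transfected CHO-K1 cells (endogenous β1) were incubated with antibody at varied concentrations for 30 min at 4° C, then secondary antibody (1:100) 30 min at 4° C. Cells were PFA-fixed and read by flow cytometry; binding EC50 estimated from FACS data.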
In the case of B1, the “CHO-K1 FACS” value was “Yes”.
Take B2: the “CHO-K1 FACS” value is “Yes”.
Same read-out and setting: then B3, with “Yes”; and B4, with “Yes”; and B5, with “Yes”.
On the same count and under the same terms, under B6 stands “Yes”.
